Test results reported in the Human Domainome abundance scans (Beltran et al. 2025).
± gives the uncertainty stated by the source.

B1: POU domain, class 6, transcription factor 2, residues 609 to 663; numbered along this chain, P78424 (parent)
chain: KRRTSFTPQALEILNAHFEKNTHPSGQEMTEIAEKLNYDREVVRVWFCNKRQALK

Variants of: B1
Test: abundance fitness (aPCA) (normalised: wild type 0, dead -1); higher = more abundant; growth selection in yeast, the domain comes from the species named
Settings: Homo sapiens

Variant	abundance fitness
KRRTSFTPQALEILNAHFEKNTHPSGQEMTEIAEKLNYDREVVRVWFCNKRQILK	-0.11 ± 0.14
KRRTSFTPQALEILNAHFEKNTHPSGQEMTEIAEKLNYDREVVRVWFCNKRQNLK	0.046 ± 0.31
KRRTSFTPQALEILNAHIEKNTHPSGQEMTEIAEKLNYDREVVRVWFCNKRQALK	-0.562 ± 0.31
KRRTSFTPQALEILNAHFEFNTHPSGQEMTEIAEKLNYDREVVRVWFCNKRQALK	-0.421 ± 0.14
KRRTSFTPQALEILNAHFERNTHPSGQEMTEIAEKLNYDREVVRVWFCNKRQALK	-0.017 ± 0.061
KRRTSFTPQALEILNAHFEVNTHPSGQEMTEIAEKLNYDREVVRVWFCNKRQALK	-0.131 ± 0.074
KRRTSFTPQALEIPNAHFEKNTHPSGQEMTEIAEKLNYDREVVRVWFCNKRQALK	-0.852 ± 0.21
KRRTSFTPQALEILNAHFEKNTHPSGQEMTEIAEKLNYDREVVRVWACNKRQALK	-0.744 ± 0.072
KRRTSFTPQALEILNAHFEKNTHPSGQEMTEIAEKLNYDREVVRVWFCNTRQALK	-0.201 ± 0.12
KRRTSFTPQALEILNAHFEKNTHPSGQEMTEIAEKLNYDREVVRVWFCNPRQALK	-1.19 ± 0.36
KRRTSFTPQALEILNAHFEKNTHPSGQEMTEIAEKLNYDREVVRVWFCNHRQALK	-0.444 ± 0.29
KRRTSFTPQALEILNAHFEKNTHPSGQEMTEIAEKLNYDREVVRVWFCNNRQALK	-0.222 ± 0.27
KRRTSFKPQALEILNAHFEKNTHPSGQEMTEIAEKLNYDREVVRVWFCNKRQALK	-0.565 ± 0.17
KRRTSFNPQALEILNAHFEKNTHPSGQEMTEIAEKLNYDREVVRVWFCNKRQALK	-0.303 ± 0.3
KRRTSFWPQALEILNAHFEKNTHPSGQEMTEIAEKLNYDREVVRVWFCNKRQALK	-0.409 ± 0.089
KRRTSFFPQALEILNAHFEKNTHPSGQEMTEIAEKLNYDREVVRVWFCNKRQALK	-0.867 ± 0.26
KRRTSFTPQALEILNAHFEKNTHPSGQEMTEIAEKLNYFREVVRVWFCNKRQALK	-0.635 ± 0.068
KRRTSFTPQALEILNAHFEKNTHPSGQEMTEIAEKLNYKREVVRVWFCNKRQALK	-0.257 ± 0.11
KRRTSFTPQALEILNAHFEKNTHPSGQEMTEIAEKLNYGREVVRVWFCNKRQALK	-0.146 ± 0.059
KRRTSFTPQALEILNAHFEKNTHPSGQEMTEIAEKLNYDREVVRVWFCNKRKALK	0.018 ± 0.11
KRRTSFTPQALEILNAHFEKNTHPSGQEMTEIAEKLNYDREVVRVWFCNKRMALK	-0.188 ± 0.12
KRRTSFTPQALEILNAHFEKNTHPSGQEMTEIAEKLNYDREVVRVWFCNKRGALK	-0.223 ± 0.1
KRRTSFTPQALEILNAHFEKNTHPSGQEMTEIAEKLNYDREVVRVWFCNKRWALK	-0.244 ± 0.1
KRRTSFTPQALEILNAHFEKNTHPSGQEMTEIAEKLNYDREVVRVWFCNKRHALK	0.022 ± 0.14

Variant	abundance fitness
KRRTSATPQALEILNAHFEKNTHPSGQEMTEIAEKLNYDREVVRVWFCNKRQALK	-0.354 ± 0.092
KRRTSQTPQALEILNAHFEKNTHPSGQEMTEIAEKLNYDREVVRVWFCNKRQALK	-0.28 ± 0.14
KRRTSFTPQALEILNAHFEKNTHPSGQEMTEIAEKLNYDREVVRVWFTNKRQALK	-0.197 ± 0.44
KRRTSFTPNALEILNAHFEKNTHPSGQEMTEIAEKLNYDREVVRVWFCNKRQALK	-0.141 ± 0.18
KRRTSFTPHALEILNAHFEKNTHPSGQEMTEIAEKLNYDREVVRVWFCNKRQALK	-0.049 ± 0.24
KRRTSFTPLALEILNAHFEKNTHPSGQEMTEIAEKLNYDREVVRVWFCNKRQALK	-0.253 ± 0.092
KRRTSFTPDALEILNAHFEKNTHPSGQEMTEIAEKLNYDREVVRVWFCNKRQALK	-0.12 ± 0.15
KRRTSFTPQALEILNAHFEKNTHPSGQEMTEIAEKLNYDREVSRVWFCNKRQALK	-0.958 ± 0.13
KRRTSFTPQALEILNAHFEKNTHPSGQEMTEIAEKLNYDREVYRVWFCNKRQALK	-0.908 ± 0.33
IRRTSFTPQALEILNAHFEKNTHPSGQEMTEIAEKLNYDREVVRVWFCNKRQALK	0.111 ± 0.2
LRRTSFTPQALEILNAHFEKNTHPSGQEMTEIAEKLNYDREVVRVWFCNKRQALK	-0.465 ± 0.24
KRRTSFTPQALEILQAHFEKNTHPSGQEMTEIAEKLNYDREVVRVWFCNKRQALK	-0.281 ± 0.11
KRRDSFTPQALEILNAHFEKNTHPSGQEMTEIAEKLNYDREVVRVWFCNKRQALK	-0.083 ± 0.16
KRRCSFTPQALEILNAHFEKNTHPSGQEMTEIAEKLNYDREVVRVWFCNKRQALK	-0.058 ± 0.17
KRRVSFTPQALEILNAHFEKNTHPSGQEMTEIAEKLNYDREVVRVWFCNKRQALK	-0.106 ± 0.079
KRRHSFTPQALEILNAHFEKNTHPSGQEMTEIAEKLNYDREVVRVWFCNKRQALK	-0.028 ± 0.26
KRRTSFTPQALEILNQHFEKNTHPSGQEMTEIAEKLNYDREVVRVWFCNKRQALK	0.019 ± 0.12
KRRTSFTPQALEILNAHFEKNTHPSGQEMTEIAEKLEYDREVVRVWFCNKRQALK	-0.075 ± 0.12
KRRTSFTPQALEILNAHFEKNTHPSGQEMTEIAEKLSYDREVVRVWFCNKRQALK	-0.046 ± 0.075
KRRTSFTPQALEILNAHFEKNTHPSGQEMTEIAEKLTYDREVVRVWFCNKRQALK	-0.263 ± 0.14
KRRTSFTPQALEILNAHFEKNTHPSGQEMTEIAEKLDYDREVVRVWFCNKRQALK	-0.042 ± 0.14
KRRTSFTPQALEILNAHFEKNTHPSGQEMTEIAEKLNYDRELVRVWFCNKRQALK	0.061 ± 0.082
KRRTSFTPQALEILNAHFEKNTHPSGQEMTEIAEKLNPDREVVRVWFCNKRQALK	-1.08 ± 0.14
KRRTSFTPQALEILNAHFEKNTHPSGQEMTEIAEKLNMDREVVRVWFCNKRQALK	0.022 ± 0.062
